From patent US6358728B1, “Mutations in nucleic acid molecules encoding 11-CIS retinol dehydrogenase, the mutated proteins, and uses thereof” (The President & Fellows of Havard College, priority 1999, dated 2002)
Positions count from the first letter of the chain named.

B1: wild type enzyme: wild type human 11-cis retinol dehydrogenase (RDH5) expressed in COS-1 cells (protein, UniProt Q92781 1-318, looked up)
Retinol dehydrogenase 5: MWLPLLLGALLWAVLWLLRDRQSLPASNAFVFITGCDSGFGRLLALQLDQRGFRVLASCLTPSGAEDLQRVASSRLHTTLLDITDPQSVQQAAKWVEMHVKEAGLFGLVNNAGVAGIIGPTPWLTRDDFQRVLNVNTMGPIGVTLALLPLLQQARGRVINITSVLGRLAANGGGYCVSKFGLEAFSDSLRRDVAHFGIRVSIVEPGFFRTPVTNLESLEKTLQACWARLPPATQAHYGGAFLTKYLKMQQRIMNLICDPDLTKVSRCLEHALTARHPRTRYSPGWDAKLLWLPASYLPASLVDAVLTWVLPKPAQAVY
B2: Ser73Phe mutant: mutant human 11-cis retinol dehydrogenase (RDH5), Ser to Phe at amino acid 73 (protein, UniProt Q92781 1-318, looked up, variant S73F)
Retinol dehydrogenase 5: B1 Retinol dehydrogenase 5 with S73F
B3: Gly238Trp mutant: mutant human 11-cis retinol dehydrogenase (RDH5), Gly to Trp at amino acid 238 (protein, UniProt Q92781 1-318, looked up, variant G238W)
Retinol dehydrogenase 5: B1 Retinol dehydrogenase 5 with G238W

Tests used:
[1] = biological target: T1, wild type 11-cis retinol dehydrogenase (Homo sapiens, UniProt Q92781); experiment: Km and Vmax of wild type enzyme, oxidation of 11-cis retinol to 11-cis retinal by microsomes, HPLC; format: biochemical; settings: 2 μg microsomal protein, 8-minute incubations, 5 mM NAD, 37° C., Lineweaver-Burk, average of duplicates 7.1 and 9.6
T1 construct: expressed in transfected cells; host or cells: COS-1 cells (microsomes), vector pSG5
T1 sequence (Q92781 1-318): B1 Retinol dehydrogenase 5
Protocol: To monitor the ability of the wild-type and mutant enzymes to catalyze the oxidation of 11-cis retinol to 11-cis retinal, 11-cis retinol, which had been synthesized by reduction of 11-cis retinal with NaBH4 and stored under argon at −80° C., was added to reaction mixtures containing microsomes from the transfected cells.
The enzyme reactions, in a total volume of 100 μp were carried out in 50 mM Tris-HCl buffer pH7.5 containing 5 mM NAD or NADH, […] 11-cis retinol, or 11-cis retinal, and microsomes at 37° C. All manipulations of retinoids were performed in dim light. The reactions were stopped by putting the tubes on ice, and the retinoids were immediately extracted with 200 μl n-hexane. Subsequently, 75 μl aliquots were analyzed by reverse-phase HPLC using a C18 column. The mobile phase was acetonitrile/water (85/15, v/v), and the column was eluted under isocratic conditions at a flow rate of 1 ml/min. 11-cis retinol and 11-cis retinal eluted at 12.0-12.2 and 14.0-14.3 minutes, respectively. Retinoids were quantified at 320 and 370 nm. […] Formed 11-cis retinal was quantified in the HPLC analyses, and the Km and Vmax values were calculated from Lineweaver-Burk plots. The values were compensated for the extraction efficiency (60-70%, as determined experimentally).

[2] = biological target: T2, 11-cis retinol dehydrogenase (RDH5) (Homo sapiens, UniProt Q92781); experiment: Relative activities of wild type and mutant enzymes, reduction of 11-cis retinal (reverse reaction), microsomes, HPLC; format: biochemical; settings: 10 minutes at 37° C., 5 mM NADH, 50 μM 11-cis-retinal
T2 construct: expressed in transfected cells; host or cells: COS-1 cells (microsomes), vector pSG5
T2 sequence (Q92781 1-318): B1 Retinol dehydrogenase 5
Protocol: The relative activities of the wild type and mutant enzymes were then determined. To do this, microsomes containing a mutant enzyme (20 μg), or wild type enzyme(2 μg) together with 18 μg of microsomal protein from mock-transfected cells, to standardize the experimental conditions, or no enzyme were combined with 50 mM Tris-HCl buffer (pH 7.5), containing 5 mM of NAD, and 50 μM 11-cis-retinol (forward, oxidation reaction) or 5 mM NADH and 50 μM 11-cis-retinal (reverse, reduction reaction) in a total volume of 100 μl. 50 μM 11-cis retinol is approximately a seven-fold higher substrate concentration than the estimated Km value for the wild-type enzyme. The mixtures were incubated for 10 minutes at 37° C., after which the reactions were stopped by putting the mixtures on ice. Retinoids were extracted immediately with 200 μl of n-hexane. Subsequently, 75 μl aliquots were analyzed via reversed phase HPLC using a C18 column. The mobile phase was acetonitrile/water (85:15 v/v), and the column was eluted under isocratic conditions at a flow rate of 1 ml/min. The 11-cis-retinol eluted at 12.0-12.2 minutes, and 11-cis-retinal at 14.0-14.3 minutes. Retinoids were quantified at 320 (retinol) and 370 (retinal) nm. Relative activities of wild-type and mutant enzymes were calculated as the ratio of formed 11-cis retinal by transfected versus mock-transfected microsomes. […]

[3] = system: 11-cis retinol dehydrogenase (RDH5); experiment: Relative activities of wild type and mutant enzymes, oxidation of 11-cis retinol (forward reaction), microsomes, HPLC; format: biochemical, human; settings: for ability to catalyze oxidation of 11-cis-retinol to 11-cis-retinal: 10 minutes at 37° C., 5 mM NAD, 50 μM 11-cis-retinol, mutant 20 μg, wild type 2 μg microsomes; for fold activity above background activity (mock transformants) / fold less activity than wild type enzyme: after 40 minutes incubation
Protocol: The relative activities of the wild type and mutant enzymes were then determined. To do this, microsomes containing a mutant enzyme (20 μg), or wild type enzyme(2 μg) together with 18 μg of microsomal protein from mock-transfected cells, to standardize the experimental conditions, or no enzyme were combined with 50 mM Tris-HCl buffer (pH 7.5), containing 5 mM of NAD, and 50 μM 11-cis-retinol (forward, oxidation reaction) or 5 mM NADH and 50 μM 11-cis-retinal (reverse, reduction reaction) in a total volume of 100 μl. 50 μM 11-cis retinol is approximately a seven-fold higher substrate concentration than the estimated Km value for the wild-type enzyme. The mixtures were incubated for 10 minutes at 37° C., after which the reactions were stopped by putting the mixtures on ice. Retinoids were extracted immediately with 200 μl of n-hexane. Subsequently, 75 μl aliquots were analyzed via reversed phase HPLC using a C18 column. The mobile phase was acetonitrile/water (85:15 v/v), and the column was eluted under isocratic conditions at a flow rate of 1 ml/min. The 11-cis-retinol eluted at 12.0-12.2 minutes, and 11-cis-retinal at 14.0-14.3 minutes. Retinoids were quantified at 320 (retinol) and 370 (retinal) nm. Relative activities of wild-type and mutant enzymes were calculated as the ratio of formed 11-cis retinal by transfected versus mock-transfected microsomes. The results were normalized for the total extracted retinoid content from each reaction.
The Gly238Trp mutant was tested further, to determine if it had any activity, by incubating for 20 and 40 minute periods before extracting retinoids. Wild type and Ser73Phe mutant were used as controls.

Molecule | Vmax [1] [nmol/mg protein/minute] | ability to catalyze reduction of 11-cis-retinal to 11-cis-retinol (reverse reaction) [2] | ability to catalyze oxidation of 11-cis-retinol to 11-cis-retinal [3] | fold activity above background activity (mock transformants) [3] [fold] | fold less activity than wild type enzyme [3]
CC1=C(/C=C/C(C)=C/C=C\C(C)=C\CO)C(C)(C)CCC1 [11-cis retinol] | 8.4 | – | – | – | –
B1 | – | catalyzed the reverse reaction | exhibited the expected ability to catalyze the oxidation | 42.9 ± 4.5 | –
B2 | – | – | residual activity | 9.1±1 | approximately 5 fold
B3 | – | – | no activity above background level | 2.2±0.14 | approximately 19 fold
